Measurements published in a protein production outcome set (Wang et al. 2014).

Assay: label from the status in PepcDB records

Sequence	protein production
MVGRDNVENTAMGEALSPSQISGRVDAVWGNPMAWEAAGWQWERLPAIRRMVNRHVTGDEAIDPLSWFFQRVAKDQTLPVRRALVLACGAGGLERQLISQGWVSEVVAVDLSPGALAAARDAARQAGISGIDYRQADMNALDVEGPFDLAVGSSALHHCENLEGIFAVVRRVLVPGGWFFLNDYIGPNRLQYDAAQVLEVNRLLQCLPDPLVMNAAGFSRRGFRPASLAEVIAFDPSEAPRSADILRVMGEALEVETVRPYGGNLLYLVLSNLAQNFDPAQSGDAAAPDYLRLLIEASDHWRATRHGQDHFAAAIARQPIS	failed
MSFVPSLPNLGRFWTAANALSLCRLALVVPITVFLWRDGPLGWLLGLVILVILTDWFDGRIARWTHSVSDWGKVIDPVADKFAAIMTVTALTFRPADPHLPLWFFGLVVGRDVAILLGGMAIARRSGQIVMSAWAGKAASLWLALTILSVILRADPPVFRVCLWMATGLFVFSFLLYVVRYLQATRNAEGATPDSVPQGP	failed
MENGLWEVLGSKGLLKKHEFIRILVQCLYSLGFKNSASCLEFESKILYKTADSEFLEKQVLSGNWDSCVQVLDRIFDNSMDDTRNTALYLVFKQCLLEYLKRGDVSLALNVLRKQAPLLRMGKEKIHRLACDIVYSKEMESGEVDNCLVLDLRRKLLVELEKLIPLPIVIPERRLEHLVETAVMDQIDTCMYHNSCDAVSLYKDHCCGRDQIPSETVQILVAHKNEVWFVQFSNSGKYLATASSDCTAIIWKVLDDNKVELKHTLESHQNPVSFVSWSPDDTKLLTCGNAEVLKLWDVDTGVLRHTFGNNNTGFTVSSCAWFPDSTRLVCGSSDPERGIVMWDTDGNEIKAWRGTRIPKVVDLAVTPDGESMITVFSDKEIRILNLETKVERVISEEQPITSLSISGDGKFFIVNLSCQEIHLWDLAGEWKQPLKFSGHRQSKYVIRSCFGGLDSSFIASGSEDSQVYIWNLKNTKPLEVLSGHSMTVNCVSWNPKNPRMLASASDDQTIRIWGPGKPNKPLN	failed
MQIQQMLENRIEELEMKIAFQEQLLDELNHALVQQQFDIDKMQVQLRYMANKLKDFQSSNIASQSEETPPPHY	not failed
MDQKPQPAKTHATEVTVLEGKTMGTFWRASIPGIDAKRSAELKEKIQTQLDADDQLLSTYKKDSALMRFNDSQSLSPWPVSEAMADIVTTSLRIGAKTDGAMDITVGPLVNLWGFGPEQQPVQIPSQEQIDAMKAKTGLQHLTVINQSHQQYLQKDLPDLYVDLSTVGEGYAADHLARLMEQEGISRYLVSVGGALNSRGMNGEGLPWRVAIQKPTDKENAVQAVVDINGHGISTSGSYRNYYELDGKRLSHVIDPQTGRPIEHNLVSVTVIAPTALEADAWDTGLMVLGPEKAKEVVRREGLAVYMITKEGDSFKTWMSPQFKSFLVSEKNLEHHHHHH	not failed
MPGFTAPTRRQVLSLYKEFIKNANQFNNYNFREYFLSKTRTTFRKNMNQQDPKVLMNLFKEAKNDLGVLKRQSVISQMYTFDRLVVEPLQGRKH	failed
MEQLQVGQVTLTWLNGGVTHLDGGAMFGVVPKPLWSKKYPPNDQNQIELRTDPILVEAGGKRLLIESGIGNGKLTDKQKRNFGVTEESSLDESLAALGLTRGDIDIVIMTHLHFDHACGLTVWEDGRLVPAFPRAAIITSDVEWEEMRAPNIRSRNTYWKENWEPIAEQVIPFTKETEVVSGIRLIHTGGHSAGHAIVLIESDGEMAIHLGDLLGTHAHQNVLWVMAYDDYPMDSIFAKQRWLPYGIERNAWFTFYHDAYYRAVKWREDGTIAEQVKRNRPTLLEHHHHHH	not failed
MRRVVIRTEALSCPLDGDEDSNELRLRPLVPDAQEWKYPKSKLFPRHAAWSCHSGGGGGGGGGRVFTNKVNAVEEFNLGGLKDSESDSDSE	failed
MSKKPHSIKVPTQYRATAKILKAALEQQKCIKTLIFAEKHARTRSLHTVLKKFSENRVALEKAIEETGLLRDNPSFDPSLAKILVTELLFGRKELNGESKPVQTVRSYKDRLLNSIRDFGVQRKEPNPRYVRINTNLYSLAEALDYLHKSDWRRKELPADASYADFLTAIKSLAENEFMTDLHVEGVLIFPAKWSNYWVRHPLVHSKRFILQNKATCLAAELLAPPSGATVLDMCAAPGMKTVHICNVMQNKGCIYSVEQDHVRYNTLCEITKDAGCDIVKPILGDALNLTPERFPDVEYILVDPSCSGSGMQNRMTVCDEPKEDKRLQKLQGLQIKILSHAMGAFPNVKRIAYCTCSLWKEENEQVVQRCLQLNPSFKLLSCKKALRNKWHNVGDKDYPNIGKNVLYCQPDSDLTDGIFLALFEKRREGEKD	failed
MTTKLDPEALNVSEEARERGTGYLNVALFGVDSRDNELEKDTRSDTIMIASLNRETMEVKISSVYRDTLLEQSDGTLNKANAAYSFGGPETAVAMLNKNLDMDIEHYVTVNFNSLIDVIDAVGGVEIDVQEEEIPYICGYAMEIMRVTGRESAGVTEPGVQTLNGIQATAYARIRYTAGDDFKRAERQRDVLTKIVGKLQGASLAQINKIIDKVFPEVSTNFTLAEILEYAKDAFDYKLGETIGFPFDKTTDTLANIGSVVIPVTLDKNVEQLHKFFYGEGDTYSPSSTVNTISGKIVAKAGDRQADTDEDSQGIMQQPDESYTGGGSSGGTKTPSSGGTSGGSSQPTPTPTPTPTPTPEPDPQPQPDPGGDDGSGGSGGDTSGGGAEGTPDAGTQLEHHHHHH	failed
MLLPRMLEEVVLAVPARDYDRVVAGLAVEGIFHVDSPPQGVKGEVDRSYRALLTQASERSSRIRQYFDLAGVEPYRVSGVEIEVGGWGESWKRYLEKYSGVEKFYSGLLEEYSEAEARLKELLDIEARIAPVAHLDVDIARLYRSGAFDFAVYYGSYSEGLESRVGEIVSRVGGLAAVEASGGSVVVAVAVPKGALSKISPEILRLNLSIYTPPEGVPGSPREAMEYIRGEKARLGRRLVSIQEMASERLGELAEFYTVVTAFENIFKFLVSTLRRGETRIVRGFVDVRDSGRLRSIVDRMTRGSYVLLSLGVRRGGEAPIPSKVDLPQFLKPFSRVVELYGYPEPNEIVPTVFLAITLPLTFALMFPDAGQGLLVLLFSLFYLRRVSRDWAYVIAVMGGASVVSGLLAGEVFGPLVSKMLGLPELWYRLGLETPPYAMPTYAIDHGEEELVPVLVYRALNVSLFMGAFMLSFGTFLGVVNGVIKRDWVGLVESRLPRFLLFASITGPFLVYMDAGEAGSVLRQALLELGGDSIAAKLVLAGSVLGLAWMLLAGPIIYMLEGHSPLAGLANSFLEAYESLLMLVGNIPSFLRIMALALAHSSLMFVIYYLTVMIMQGGILADVVGALLYVGGNLAVAAMEGLLAFAHASRLHFYEWFSKFYSGTGVPYTPIKVEGVRIKIAGQTF	failed
MDPNQPVKFTEFMPDSGGIRTKFIVKGSNFGEDKSQVKVYFKDEVGNEREALVLGVKPDVIYAQVPKQAGGESHVRVEIAGKEAELSNAEKTFKYIVTSSVSTVVGKAKEGGNKDGTLGETTFNTPRYVAVDNDDNVFIFDSDGRTRLSSIEQNKTITLLDGMVIDQPLFIDKEKKQLFGPCDNANFGCFLFDANVSWVADKMGQLLANGGWMHSVVLDPVDSTFVIYRQNTGQLWTQPFDKNRRTLNPNKAKRIGTLYNTGSNGLCAYNPVDKYVYCVLHSKSAVYRFKLTRDADGWPALDGDIDEYIPGAGAGFRDGDVQEAQFKEPRGIAIDKEGNLYIADVGNNRIRKVDTKLNVVTTIAGSGAAGYKDGDPLEAQFNQPWGVYLDKNEFLYIADQNNHCIRKLAIELEHHHHHH	failed
MRVVLQMAPPIASGRGGQGLITCPGHKERRVASLNRIAMARSSRRMIKDLGPEGLEVAEISGKWGQQFPFRSYRRFIYPEYDICAGPYCDAAGEIEQFDLILANQVWEHLDRPYEATLNVLEMLRTGGHFWLAVPFFVPFHAAPMDNSRWSARGLRNFLIECGFAEEEIRAEQWGNRHAALRNLERPWPPVYDPETDPLDNDPDFPICAWAIARKT	failed
MAETSIEWTDVTWNPVAGCTVLTAGCTNCYAMRMAARLEAMGVEKYAGLTRKSGGRAKWTGRIFLDRKALSIPASWSKPRRVFVNSMSDLFHSDVPTDFISDVWKVMAQTPRHTYQILTKRPDRMVEIVPGLAKLRNVWLGTSVEDARVIYRIDKLRQVPAAVRFVSFEPLIGSVSGAGLRNIHWAIVGGESGPKARSMDPAWVDEIESMCRDQGAAFFFKQWGGKNKKAAGRTLNGRLYDEMPAPSMP	failed
MASSSSSSEHKVFLSFRREDTGRTFVSHLYRSLDQKEIRTYKFENQQAGDGKRISSEVKQAINESRIAVVVISENYVSSVLCLDVLAKIIERLPLIKIETVFYEVDPGDLTRPTGKFADDFRRHEARENRRTVNRWRDALDQLVSITNSNFCSRNWEDDSKMIDDLIIRLINIYFSKYYTPDVDIIAETTVGLDASVLGLMTDIDMKYKLNSLSGSVESGFGLERYALEATSVMDDMSNESPSPTSDDSNGLVGMYRHKKAVYGLLDLESKNQVRTIGIWGFQGVGKTTLAECVFDDISSHFQHYCFLTNANKIYQNRISPSLLKHLTRRRSSEDIFDAIKPSLVNRKVLFVVDGVDATYNEQFNDAMKVTRWLGPGSRIIMTSRFKSSLKFGGAKYEMECLRYEEALQLFSLYAFKKTYPLIGFELFSIRAVHFAGRLPLSLKVLGSFLYDKDEESWKRTLHKLEASQDNDRRYVSNYIGAGEYLPRRQIELEQYVSPDEEEYSPSYIMSL	failed
MSVFSGFPASPPDAILNLTVLYNADTNPKKVNLGVGAYRDESGKPWILPAVKEAEAIISSDLSKYNKEYPPVAGFPLFLEAAQFLMFGKDSKAAQEGRIASCQSLSGTGSLHIGFEFLHLWMPKAEFYMPSTTWPNHYGIYDKVFNKLKVPYKEYTYLRKDGELEIDFSNTKKDIQSAPEKSIFLFHACAHNPSGIDFTEAQWKELLPIMKEKKHIAFFDSAYQGFATGSFEADAFAVRMFVDAGVEVLVAQSFSKNFGLYGERIGCLHVVHAGVEGSVEKNKALSAAMVSGMTLQIRKTWSMSAIHGAYIVQVIVHDKRLLQMFYDNVKEMSARIHRMRSLLHASLAKRKTPGPGSKGTWDHILTAIGMFTFTGLTPEHVDYLKEKWSIYLVKAGGRMSMCGLTESNCDYVAEAIHDAVTKLPFKK	not failed
MKVNPDFFPLTQMAQRFVDQLAQCRRLGLTVLEASEHHVLIELPYSTELIGYPDTGVIHGGVITTLMDTACGSAVVSAIFQKYQSLEISPTLDLRVDYMKPAQPHKSVYGFAECYKLSSNIAFTRAIAYQDSIDDPIAHAVGSFMRISPEMVGDAFRQALIGLEHHHHHH	not failed
MSLTLRVLAPDQNVFDGSADEVILPSTTGQLGILPGHISLLTAIDVGVLRVRANGGWNSIALMGGFAEVDADEVTVLVNQAELGSTIDGNTAEADFQKATTVVDGLEGQPASPEKVKAQQQLNMARARMQASKSAD	failed
MSLSEPAWSLHSRLKEDTIDIGDLPLSKVLVIKDANYPWLLLVPRRPDAVEIIDLDEVQQAQLMTEISRVSRALKEITKCDKLNIAALGNLVPQLHVHIIARRTGDAAWPRPVWGVMQPLAHDATEVQNFISALRRKIWLGEGHHHHHH	not failed
MIDVIQSLGIDLHFRQEIEQTLHMIYKEGLQFNGDLHEIALRFRLLRQEGHYVQEIIFKNILDKKGGFKDVVKNDVKGLTELFEASELRVEGEETLDGAREFTYSRLNELCSGRESHQKQEIMKSLAQPRHKTVRGLTSKRFTSMIKIAGQEDPEWLQSLLRVAEIDSIRLKSLTQGEMSQTFKWWTELGLEKDVEKARSQPLKWHTWSMKILQDPTLTEQRLDLTKPISLVYVIDDIFDVYGELEELTIFTRVVERWDHKGLKTLPKYMRVCFEALDMITTEISMKIYKSHGWNPTYALRQSWASLCKAFLVEAKWFNSGYLPTTEEYMKNGVVSSGVHLVMLHAYILLGEELTKEKVELIESNPGIVSSAATILRLWDDLGSAKDENQDGTDGSYVECYLNEYKGSTVDEARTHVAQKISRAWKRLNRECLNPCPFSRSFSKACLNIARTVPLMYSYDDDQRLPDEYLKSLM	failed
